Measured values from patent US20090098130A1 (published 2009).
Non-standard residues stand in square brackets, D forms with d. No end group written: not given here. Aib = CC(C)(N)C(=O)O

Target: glucagon-like peptide 1 receptor (GLP-1R)
Assay: cell-based or functional assay

Binder	EC50 (µM), glucose-stimulated insulin secretion (GSIS) assay on pancreatic β cell cultures [µM]
H[Aib]EGTFTSDLSKQLEEEAVRLAIEFLKN [GA targeting peptide of SEQ ID NO: 9]	< 10
H[Aib]EGTFTSDLSKQLEEEAVRLAIEFLKNGGPSSGAPPPS [GA targeting peptide of SEQ ID NO: 10]	< 10
